Laboratory results from patent US20250340623A1 (AC IMMUNE, published 2025).
Positions count from the first letter of the chain named. Where no end group is shown, it is not given here. The star is where a group is joined. Biotin = O=C1N[C@H]2[C@H](CS[C@H]2CCCCC(=O)*)N1; Ahx = NCCCCCC(=O)O

T1: 46-60aa
T1 construct: also called alpha-synuclein peptide 46-60
T1 peptide: {Biotin-Ahx}-EGVVHGVATVAEKTK

T2: 127-140aa
T2 peptide: {Biotin-Ahx}-MPSEEGYQDYEPEA

T3: 118-132aa
T3 peptide: {Biotin-Ahx}-VDPDNEAYEMPSEEG

T4: 82-96aa
T4 construct: also called alpha-synuclein peptide 82-96
T4 peptide: {Biotin-Ahx}-VEGAGSIAAATGFVK

T5: 64-78aa
T5 construct: also called alpha-synuclein peptide 64-78
T5 peptide: {Biotin-Ahx}-TNVGGAVVTGVTAVA

B1: ACI-2503C6_1101C8 (bispecific antibody, V domains shown)
VH 1: DVQLQESGPGLVKPSQSLSLTCSVTGYSITSGYYWNWIRLFPGNKLEWLGYINYDGSNNFNPSLKNRISITRDTSKNQFFLKLNSVTSEDTATYFCLRGDWDWGQGTLVTVSA
VL 1: not shown
VH 2: EVQLVESGGGLVQPKGSLKLSCAASGFSFNIYAMNWVRQAPGKGLEWVARIRSKSNNYATYYADSVKDRFTISRADSESMLYLQMNNLKTEDTAMYYCVRVGLRFYAMDYWGQGTSVTVSS
VL 2: DVLMTQTPLSLPVSLGDQASISCRSSQSIVHSNGNTYLEWYLQKPGQSPKLLIYKVSNRFSGVPDRFSGSGSGTDFTLKISRVEAEDLGVYYCFQGSQGPLTFGAGTKLELK
notes: biparatopic; Arm A ACI-7079-2503C6-Ab1, Arm B ACI-7067-1101C8-Ab2; engineered constant domains not specified
B2: ACI-5A12_3108C10 (bispecific antibody, V domains shown)
VH 1: QVHLKQSGADLVRPGASVKLSCKASGYTFTDYYINWVKQRPGQGLEWIARIYPGSGNTYYNEKFKGRATLSAEKSSTTAYMQLSSLTSEDSAVYFCVVGYYGAWGQGTTLTVSS
VL 1: DVVMTQTPLSLPVSLGDQASISCRSSQSLVHSNGKTHLHWYLQKPGQSPKLLIYKVSNRFSGVPDRFSGSGSGTDFTLKISRVEAEDLGVYFCSQSTHVPWTFGGGTKLEIK
VH 2: ELQLVESGGGLVRPGGSLKLSCATSGFTFRNYAMSWVRQTPAKRLEWVATISDGGTYTFYSDNVKGRFTISRDNVKNTLYLQMSHLKSEDTAMYYCSRAGSGHWGQGTTLTVSS
VL 2: not shown
notes: biparatopic; Arm A ACI-8033-5A12-Ab1, Arm B ACI-7079-3108C10-Ab2; engineered constant domains not specified
B3: ACI-4F3_4317A4 (bispecific antibody, V domains shown)
VH 1: EVQLQQSGPELVKPGASVKISCKASGYTFTDYYMNWVKQSHGKSLEWIGDINPNTGTNSYNQKFKGRASLTVDKFSSAAYMELRSLTSEDSAVYYCARTGYGDPISSYYYALDYWGQGTSVTVSS
VL 1: DIVMSQSPSSLAVSAGEKVTMSCKSSQSLLNSRTRKNYLAWYQQKPGQSPKLLIYWASTRESGVPDRFTGSGSGTDFTLTISSVQAEDLAVYYCKQSYNLWTFGGGTKLEIK
VH 2: EVQLQQSGAELVRPGASVKLSCTASGFNIKDDYMHWVKQRPEQGLEWIGWIDPENGDTEYASKFQGKATMTADTSSNTAYLQLSSLTSEDTAVYYCKTWGTTQALFPYWGQGTLVTVSA
VL 2: DIVMTQSQKFMYTSVGDRVSITCKASQNVGNAVGWYQQKAGQSPKLLIHSASNRYTGVPDRFTGTGSGTDFTLTINNMQSEDLADYFCQQYRSYPLTFGAGTKLELK
notes: biparatopic; Arm A ACI-8033-4F3-Ab1, Arm B ACI-7088-4317A4-Ab1; engineered constant domains not specified
B4: ACI-1113D10_4317A4 (bispecific antibody, V domains shown)
VH 1: EVQLVESGGGLVQPKGSLKLSCAASGFTFNTYALHWVRQAPGKGLEWVARIRSKSSNYATYYADSVKDRFTISRDDSQSMLYLQMNNLKTEDTGMYYCVRGGVSPFDYWGQGTTLTVSS
VL 1: QIVLTQSPAIMSASPGEKVTMTCSASSSVSYMHWYQQKSGTSPKRWIYDTSKLASGVPARFSGSGSGTSYSLTISSMEAEDSATYYCQQWSNNPPTFGGGTKLEIK
VH 2: B3 VH 2
VL 2: B3 VL 2
notes: biparatopic; Arm A ACI-7067-1113D10-Ab1, Arm B ACI-7088-4317A4-Ab1; engineered constant domains not specified
B5: ACI-7067-1102G3-Ab1 (antibody, V domains shown)
VH: EVKLEESGGGLVQPGGSMKLSCAASGFTFSDAWMNWVRQSPEKGLEWVAEIRNKAHNHATYYAESVKGRFTISGDDSKSSVYLQMNNLRAEDTGIYYCTIYSYWGQGTLVTVSA
VL: SIVMTQTPKFLLVSAGDRVTITCKASQSVTKDVAWYQQKPGQSPKLLIYSTSNRYSGVPDRFTGSGYGTDFTFTINTVQTEDLAVYFCQQDYRIPYTFGGGTKLEIK
notes: mouse hybridoma mAb; VH/VL only; also called 1102G3F2
B6: ACI-7067-1112H8-Ab2 (antibody, V domains shown)
VH: B5 VH with S30T, V48I, H58Y, T71D, A90V, Q106P
VL: SIVMTQTPKFLLMSPGDRVTMTCTASQSVSNYVAWYQQKPGQSPKLLIYSASNRFTGVPDRFTGSGYGTDFTFTINTVQTEDMAVYFCQQDYTSPYTFGGGTKLEIK
notes: mouse hybridoma mAb; VH/VL only; also called 1112H8C12
B7: ACI-4F3_5A12 (bispecific antibody, V domains shown)
VH 1: B3 VH 1
VL 1: B3 VL 1
VH 2: B2 VH 1
VL 2: B2 VL 1
B8: Fab ACI-7067-1108B11-Ab2 (Fab, V domains shown)
VH: EVQLVESGGGLVQPKGSLKLSCAASGFTFNTYAMHWVRQAPGKGLEWVARIRSKGSNYATNYADSVKDRFTISRDDSQSMLYLQMNNLKTEDTAMYYCVRGHGSSYFSYWGQGTLVTVSA
VL: QIVLTQSPAIMSASPGERITMTCSANSSVTYMHWYQQKSGTSPKRWIYDTSNLASGVPARFSGSGSGTSYSLTISSMEAEDAATYYCQQWKSHPPTFGAGTKLELK
B9: Fab ACI-7067-1101C8-Ab2 (Fab, V domains shown)
VH: B1 VH 2
VL: B1 VL 2
B10: Fab ACI-7067-1108H1-Ab1 (Fab, V domains shown)
VH: B5 VH with E5V, A23T, Y61N, Y103F
VL: B5 VL with K31N, D32Y, Q37H, T51A
B11: Fab ACI-7067-1113D10-Ab1 (Fab, V domains shown)
VH: B4 VH 1
VL: B4 VL 1

The binders below were run against T6, alpha-synuclein fibrils (UniProt P37840 1-140) (assay: SPR, captured bAb).
Procedure: (§1) Any non-covalently bound antibodies were removed by three successive regenerations of 10 mM Glycine pH 1.7 (GE Healthcare, 28-9950-84). Immobilization levels were evaluated following ethanolamine capping (Bound) and finally following regeneration (Final). Non-covalent immobilization of alpha-synuclein biparatopic antibodies on flow cell 2 of channels 1-8 was performed at a final concentration of 5 μg/mL, diluted in 10 mM sodium acetate pH 5.5 (GE Healthcare, BR-1003-52). Non-covalent immobilization of an isotype control antibody on flow cell 1 of channels 1-8 was performed at a final concentration of 5 μg/mL, diluted in 10 mM sodium acetate pH 5.5 (GE Healthcare, BR-1003-52).
(§2) Binding affinity of alpha-synuclein biparatopic antibodies to monomeric or fibrillar alpha-synuclein species was performed using a single-cycle kinetics method. The instrument was primed with 1×HBS-P+ buffer (10× stock from GE Healthcare, BR-1003-52 diluted in Milli-Q water). Injections of monomeric alpha-synuclein (Boston Biochem, SP-485), increasing in concentration from 0.62-50 nM prepared from serial 2-fold dilutions, were performed with contact times of 300 sec/injection at a flow rate of 30 μL/min. A dissociation phase of 900 sec followed the final 50 nM injection. Regeneration of the sensor to the goat anti-human antibody layer was achieved using 3 regenerations of 10 mM Glycine pH 1.7. […] Regeneration of the sensor to the goat anti-mouse antibody layer was achieved using 3 regenerations of 10 mM Glycine pH 1.7. Results obtained from single-cycle kinetics were evaluated by Biacore 8K evaluation software with 1:1 binding homogenous Langmuir model with a preceeding buffer injection as a blank subtraction. The following kinetic parameters were obtained: on-rate (ka), off-rate (kd), affinity constant (KD, ratio of kd by ka), maximum response (Rmax), and goodness of fit (Chi2).
(§3) Kinetic constants were determined from 1:1 homogenous binding models for all cases.
For B1, the koff was 1.53e-07 s⁻¹ and the kon was 61600 M⁻¹ s⁻¹.
B2 was tested, and the koff was 9.19e-05 s⁻¹ and the kon was 11200 M⁻¹ s⁻¹.
Work on B3 yielded a koff of 7.84e-08 s⁻¹ and a kon of 51700 M⁻¹ s⁻¹.
B4 was tested, and the koff was 3.48e-07 s⁻¹ and the kon was 56800 M⁻¹ s⁻¹.

The binders below were run against T7, monomeric alpha-synuclein (UniProt P37840 1-140) (assay: SPR, captured bAb).
Procedure: as §1, §2, §3
In the case of B1, the koff is reported as 0.00025 s⁻¹ and the kon is reported as 220000 M⁻¹ s⁻¹.
B2 showed a koff of over 1 s⁻¹ and a kon of over 2.9e+07 M⁻¹ s⁻¹.
B3 was tested, and the koff was 0.00103 s⁻¹ and the kon was 884000 M⁻¹ s⁻¹.
B4 showed a koff of 0.000514 s⁻¹ and a kon of 1.23e+06 M⁻¹ s⁻¹.

Target: T1, 46-60aa
Test: indirect ELISA on biotinylated 15-mer peptide
Procedure: (§4) Serum-free supernatants were harvested from stable hybridomas. The supernatants containing antibodies of interest were then screened by an indirect ELISA assay to determine epitopes. Epitopes were first determined using a library of 15-mer peptides covering the entire sequence of human alpha-synuclein protein, spanning amino acids (aa) 1-140 with 9aa offset and […] overlap. […] Briefly, streptavidin-coated ELISA plates were blocked overnight at 4° C. […] Plates were washed with PBS/0.05% Tween®20 and then incubated with the hybridoma supernatants at 1/100 dilution for 1 hour at 25° C.
B5: no binding (tested: supernatant 1/100).
B6: no binding (tested: supernatant 1/100).

Target: T2, 127-140aa
Test: indirect ELISA on biotinylated 15-mer peptide
Procedure: as §4
B5: no binding (tested: supernatant 1/100).
B6: no binding (tested: supernatant 1/100).

Target: T3, 118-132aa
Test: indirect ELISA on biotinylated 15-mer peptide
Procedure: as §4
B5: no binding (tested: supernatant 1/100).
B6: no binding (tested: supernatant 1/100).

Target: T4, 82-96aa
Test: indirect ELISA on biotinylated 15-mer peptide
Procedure: as §4
B5: no binding (tested: supernatant 1/100).
B6: no binding (tested: supernatant 1/100).

Target: T6, alpha-synuclein fibrils
Test: SPR, captured bAb
Remark: another data set of the same source
Procedure: as §2
For B1, the “fold slower dissociation rate (Kd) from fibrillar than from monomeric alpha-synuclein” value (shortened to “fold slower dissociation rate (Kd)”) was at least 100 fold.
B2 was tested, and the “fold slower dissociation rate (Kd)” value was at least 100 fold.
For B3, the “fold slower dissociation rate (Kd)” value was at least 100 fold.
With B4 the “fold slower dissociation rate (Kd)” value was at least 100 fold.

These binders were tested against T8, alpha-synuclein seeds (UniProt P37840 1-140) (assay: cell-based or functional assay).
B2 was tested, and the “IC50, percentage of de novo alpha-synuclein aggregates formed in cells after immunodepletion of seeds” value was 22.7 nM.
In the case of B7, the “IC50, percentage of de novo alpha-synuclein aggregates formed in cells after immunodepletion of seeds” value is reported as 15.2 nM.

These binders were tested against T6, alpha-synuclein fibrils (assay: SPR, captured bAb; head says nM, kd/ka gives M).
Procedure: as §1, §2, §3
Work on B1 yielded a Kd of 0.00248 nM.
B2 showed a Kd of 8.21 nM.
B3 gave a Kd of 0.00152 nM.
With B4 the Kd was 0.00614 nM.

These binders were tested against T7, monomeric alpha-synuclein (assay: SPR, captured bAb; head says nM, kd/ka gives M).
Procedure: as §1, §2, §3
Work on B1 yielded a Kd of 1.14 nM.
B2 gave a Kd of 34.5 nM.
With B3 the Kd was 1.17 nM.
Binder B4 has a Kd of 0.416 nM.

Target: T5, 64-78aa
Test: indirect ELISA on biotinylated 15-mer peptide, supernatant 1/100
Procedure: as §4
B5: binds.
B6: binds.

Target: T8, alpha-synuclein seeds
Test: cell-based or functional assay
Remark: another data set of the same source
With B8 the “aggregation half-time (τ1/2) of seeded alpha-synuclein aggregation, ThT; no antibody 18.0 hours” value (from here on “aggregation half-time … no antibody 18.0 hours”) was 22.3 h.
For B9, the “aggregation half-time … no antibody 18.0 hours” value was 26.3 h.
In the case of B10, the “aggregation half-time … no antibody 18.0 hours” value is reported as 19.4 h.
With B11 the “aggregation half-time … no antibody 18.0 hours” value was 21 h.
